Experimental data reported in publication PMC3327698, “Binding Properties and Stability of the Ras-Association Domain of Rap1-GTP Interacting Adapter Molecule (RIAM)” (PLoS ONE, 2012).

T1: GST-RIAM150-502 (RA and PH domains) (human, UniProt Q7Z5R6 150-502)
T1 construct: Modified pGEX-4T3 vector with a TEV protease site; also called RA-PH domain pair; source: E. coli BL21 GOLD, purified (Glutathione Sepharose, SEC); not shown: GST, N-terminal, kept
T1 sequence (looked up): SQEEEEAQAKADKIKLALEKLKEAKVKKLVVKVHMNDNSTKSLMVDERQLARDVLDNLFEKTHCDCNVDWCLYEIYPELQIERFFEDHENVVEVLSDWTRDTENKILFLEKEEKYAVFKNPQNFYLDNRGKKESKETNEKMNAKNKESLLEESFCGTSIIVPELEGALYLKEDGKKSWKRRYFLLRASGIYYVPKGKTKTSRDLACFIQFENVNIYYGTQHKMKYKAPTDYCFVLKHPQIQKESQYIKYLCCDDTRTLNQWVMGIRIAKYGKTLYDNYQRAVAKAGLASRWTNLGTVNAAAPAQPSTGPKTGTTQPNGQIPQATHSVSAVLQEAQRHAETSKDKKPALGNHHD

B1: Rap1B (amino acids 1-167) (domain or fragment, UniProt P61224 1-167, looked up)
chain: MREYKLVVLGSGGVGKSALTVQFVQGIFVEKYDPTIEDSYRKQVEVDAQQCMLEILDTAGTEQFTAMRDLYMKNGQGFALVYSITAQSTFNDLQDLREQILRVKDTDDVPMILVGNKCDLEDERVVGKEQGQNLARQWNNCAFLESSAKSKINVNEIFYDLVRQINR
notes: small GTPase Rap1B, amino acids 1-167 (C-terminus excluded); loaded with Gpp(NH)p or GDP before the assay; One molecule for both nucleotide states; Construct pGEX-4T3/Rap1B came from A. Wittinghofer; also called Rap1B-Gpp(NH)p; Rap1B-GTP; source: E. coli BL21 GOLD, purified (Glutathione Sepharose, nucleotide exchange, SEC)

Key:
[1] = biological target: B1; test: pull-down; quantitative: GST-RIAM on Glutathione Sepharose 4B; Rap1B-Gpp(NH)p at 0.05, 0.1, 0.3, 0.5, 0.7 and 1.0 µM; Buffer A; anti-Rap1 Western blot, densitometry, nonlinear regression (GraphPad Prism); details: both partners purified
[2] = biological target: T1, GST-RIAM150-502 (RA and PH domains); test: as above; details: both partners purified

Kd [1] [nM]	Kd [2] [nM]	Binder
330 ± 90	–	GST-RIAM150-261 (RA domain) (domain or fragment, human, UniProt Q7Z5R6 150-261, looked up, Modified pGEX-4T3 vector with a TEV protease site between GST and RIAM; also called RIAM RA domain construct; GST-RIAM-RA; source: E. coli BL21 GOLD, purified (Glutathione Sepharose, SEC); not shown: GST, N-terminal, kept) SQEEEEAQAKADKIKLALEKLKEAKVKKLVVKVHMNDNSTKSLMVDERQLARDVLDNLFEKTHCDCNVDWCLYEIYPELQIERFFEDHENVVEVLSDWTRDTENKILFLEKE
–	700 ± 400	B1
